Assays:
Experiment in all cases: Retrogenix cell microarray on HEK293 cells
[1] = molecular target: T1, GFRα2 (Retrogenix library, on HEK293 cells) (human, UniProt O00451 22-444)
T1 construct: whole, on cells
T1 sequence (looked up): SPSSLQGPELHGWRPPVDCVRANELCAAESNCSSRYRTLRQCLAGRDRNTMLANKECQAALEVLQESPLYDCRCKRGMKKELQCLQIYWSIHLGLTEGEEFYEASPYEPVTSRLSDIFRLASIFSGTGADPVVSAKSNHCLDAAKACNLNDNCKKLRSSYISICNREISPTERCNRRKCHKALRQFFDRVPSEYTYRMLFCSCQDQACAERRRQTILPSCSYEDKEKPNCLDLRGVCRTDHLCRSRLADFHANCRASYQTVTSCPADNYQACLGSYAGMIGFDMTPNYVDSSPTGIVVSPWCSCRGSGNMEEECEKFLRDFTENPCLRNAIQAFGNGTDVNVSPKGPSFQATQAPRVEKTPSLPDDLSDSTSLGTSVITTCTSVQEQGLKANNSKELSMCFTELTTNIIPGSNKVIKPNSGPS
Description: (§1) In parallel, two studies were performed at Retrogenix Ltd (Whaley Bridge, High Peak, Derbyshire, UK) using Retrogenix' Cell Microarray technology to screen for binding partners for the Fc-GDF15 fusion molecule. Two studies were performed to screen Retrogenix's plasma membrane protein library, first on 3500 proteins and second on an additional 993 proteins, with total number of proteins screened being 4493. A background screen was performed prior to the primary screen to detect the background level of binding of the test ligand Fc-GDF15 at 2, 5, and 20 ug/ml with blank slides coated with live HEK293 cells and detected by using an AlexaFluor647 anti-Fc antibody. In the primary screen, vectors encoding each full-length human plasma membrane protein in the library were arrayed in duplicates on Retrogenix's cell microarray slides (referred to as ‘slide-set’). Three replicate slide-set were used in the primary screen. Control expression vector (pIRES-hEGFR-IRES-ZsGreen1) was spotted in quadruplicate on every slide to ensure that a minimal threshold of transfection efficiency had been achieved or exceeded on every slide. HEK293 cells were used for reverse transfection in live conditions. The test ligand Fc-GDF15 was added at the concentration of 20 ug/ml to each slide set. After the addition of test ligand, cell fixation was performed and the AlexaFluor647 anti-Fc antibody was used for binding detection. Fluorescent images were analyzed using ImageQuant software (GE) and a protein ‘hit’ is defined as a duplicate spot showing a raised signal compared to background levels by visual inspection using the images gridded on the ImageQuant software. Hits identified in the primary screen were tested in a confirmation screen, where all vectors encoding the hits in at least one of the three replicate primary screening slide-sets were arrayed on new slides. Confirmation screening was performed similar to the primary screening, with the addition of control samples for binding Fc. Binding of cells overexpressing CD86 to human CTLA4 fused to human Fc, served as a positive control, and binding to Fc alone served as a negative control.

[2] = molecular target: T2, GFRα3 (Retrogenix library, on HEK293 cells) (human, UniProt O60609 32-374)
T2 construct: whole, on cells
T2 sequence (looked up): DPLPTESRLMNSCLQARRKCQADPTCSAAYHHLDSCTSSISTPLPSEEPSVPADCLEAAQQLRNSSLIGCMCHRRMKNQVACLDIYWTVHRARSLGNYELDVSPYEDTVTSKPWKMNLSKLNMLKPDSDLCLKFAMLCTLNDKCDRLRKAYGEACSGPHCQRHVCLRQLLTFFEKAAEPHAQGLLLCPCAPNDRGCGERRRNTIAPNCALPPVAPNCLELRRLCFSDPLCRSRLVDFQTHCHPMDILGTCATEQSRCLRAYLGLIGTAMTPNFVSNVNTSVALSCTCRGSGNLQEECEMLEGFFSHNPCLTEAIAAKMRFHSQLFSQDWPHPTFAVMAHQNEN
Description: as §1

[3] = molecular target: T3, GFRα4 (Retrogenix library, on HEK293 cells) (human, UniProt Q9GZZ7 21-278)
T3 construct: whole, on cells
T3 sequence (looked up): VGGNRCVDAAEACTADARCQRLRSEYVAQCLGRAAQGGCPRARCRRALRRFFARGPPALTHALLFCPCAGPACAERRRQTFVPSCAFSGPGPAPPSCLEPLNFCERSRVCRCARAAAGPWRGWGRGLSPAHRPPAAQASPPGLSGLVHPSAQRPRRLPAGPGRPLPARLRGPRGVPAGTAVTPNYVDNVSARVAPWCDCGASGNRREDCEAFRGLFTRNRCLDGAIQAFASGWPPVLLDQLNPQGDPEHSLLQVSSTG
Description: as §1

[4] = molecular target: T4, GFRα1 (Retrogenix library, on HEK293 cells) (human, UniProt P56159 25-429)
T4 construct: whole, on cells
T4 sequence (looked up): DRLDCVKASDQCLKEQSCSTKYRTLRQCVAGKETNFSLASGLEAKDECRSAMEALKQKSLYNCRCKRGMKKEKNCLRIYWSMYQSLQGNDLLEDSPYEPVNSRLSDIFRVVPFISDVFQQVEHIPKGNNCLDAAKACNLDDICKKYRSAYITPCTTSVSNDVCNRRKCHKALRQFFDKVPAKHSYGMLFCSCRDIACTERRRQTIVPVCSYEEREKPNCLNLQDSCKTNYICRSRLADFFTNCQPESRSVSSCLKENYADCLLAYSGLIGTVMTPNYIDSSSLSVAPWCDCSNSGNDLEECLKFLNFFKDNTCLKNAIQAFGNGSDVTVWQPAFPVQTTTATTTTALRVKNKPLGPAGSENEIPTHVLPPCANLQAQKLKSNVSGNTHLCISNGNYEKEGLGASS
Description: as §1

Measured: binding result

B1: heterodimeric Fc-GDF15 fusion molecule (Fc fusion)
chain 1: CPPCPAPEAAGGPSVFLFPPKPKDTLMISRTPEVTCVVVDVSQEDPEVQFNWYVDGVEVHNAKTKPREEQFNSTYRVVSVLTVLHQDWLNGKEYKCKVSNKGLPSSIEKTISKAKGQPREPQVYTLPPSQEEMTKNQVSLSCAVKGFYPSDIAVEWESNGQPENNYKTTPPVLDSDGSFFLVSRLTVDKSRWQEGNVFSCSVMHEALHNHYTQKSLSLSLGKGSGGGARNGDHCPLGPGRCCRLHTVRASLEDLGWADWVLSPREVQVTMCIGACPSQFRAANMHAQIKTSLHRLKPDTVPAPCCVPASYNPMVLIQKTDTGVSLQTYDDLLAKDCHCI
chain 2: CPPCPAPEAAGGPSVFLFPPKPKDTLMISRTPEVTCVVVDVSQEDPEVQFNWYVDGVEVHNAKTKPREEQFNSTYRVVSVLTVLHQDWLNGKEYKCKVSNKGLPSSIEKTISKAKGQPREPQVYTLPPSQEEMTKNQVSLWCLVKGFYPSDIAVEWESNGQPENNYKTTPPVLDSDGSFFLYSRLTVDKSRWQEGNVFSCSVMHEALHNHYTQKSLSLSLGK
notes: also called Fc-GDF15 ligand
no binding (tested: 20 ug/ml): all assays above

From patent US20190234935A1 (Janssen / Centocor, published 2019)
